According to the DeepSol protein solubility set:

Assay: soluble on expression in E. coli; label from the status in PepcDB or PDB records

Sequence	soluble on expression in E. coli
MGHHHHHHHHHHSSGHIEGRHMGKNVLLLGSGFVAQPVIDTLAANDDINVTVACRTLANAQALAKPSGSKAISLDVTDDSALDKVLADNDVVISLIPYTFHPNVVKSAIRTKTDVVTSSYISPALRELEPEIVKAGITVMNEIGLDPGIDHLYAVKTIDEVHRAGGKLKSFLSYCGGLPAPEDSDNPLGYKFSWSSRGVLLALRNSAKYWKDGKIETVSSEDLMATAKPYFIYPGYAFVCYPNRDSTLFKDLYHIPEAETVIRGTLRYQGFPEFVKALVDMGMLKDDANEIFSKPIAWNEALKQYLGAKSTSKEDLIASIDSKATWKDDEDRERILSGFAWLGLFSDAKITPRGNALDTLCARLEELMQYEDNERDMVVLQHKFGIEWADGTTETRTSTLVDYGKVGGYSSMAATVGYPVAIATKFVLDGTIKGPGLLAPYSPEINDPIMKELKDKYGIYLKEKTVA	soluble
MKVYYPGREWPEEYKRVLEKMKEIIDPVTGDNILDSGVVAGLEVKDRTLKVWLRFESQAEYNILGGAAMAYSKIVGDIMEKFALVMFDNVYVYDLRNNIVGVFEKKK	soluble
MGSDKIHHHHHHMYYGSIITVLSSDKNKLTGIAEKLGKLHETAKTKIYYRKKGEYIRSILLTTEYPEKIIDLAEALSLSSTAILYIPETLTWMDGELALLIDSLNTHNKIVISNLDQGKINNILGSLSSFTKFDLYNDIPDLSETEEEDKGIVYVDRVFTVKGVGTVVTGFSFTNVEVHEKLVALPYNKEVEIKSIQVLDEDQKSVSTGVRIGFALKNVKEEEIEDLLYLVKPNVKVVKEIEGQITNYKWSTINQGQNHIIVKGHGIAANIKVDNQKAKIMSSVPIPIVDNRILVLNVNVRQGKPRVAGYISL	not soluble
MSNKLDGINKMITAKHKQMDDLYDEKREVKALIDESDELNHSIEQLYQHLGDRYHSSNMASRMEQFRDEFHFAKRRSTEALYEQQQQIQHGIRKAEEEMIDLEMRRNVEIETVTKEENKWKQLEHHHHHH	soluble
MGSDKIHHHHHHMRIYSFYNENARRETLEEHVATALKLLDSAENSKLVKYGKKLSPEFERAVKLAIIFHDTGKVFFQIKKGYGYMSFRGHEYFSTYIFDVFARRLIKSEIENYEALSELRKICNFSIFFHHHAMNIRMREPEAGSNIKAGLKLLDVLYSEVKRFLEDKEKKALKAALEEVKEKGTANLTGYVKGEIVREVWRNAMDSSKLKRLCYLNLLVLIAADYSSAALNRGGNKTPFGRVVEEFSEFYLK	not soluble
MLEFQTPELLRMPLQELCLHTKLLAPVNCPIADFLMKAPEPPPALIVRNAVQMLKTIDAMDTWEDLTELGYHLADLPVEPHLGKMVLCAVVLKCLDPILTVACTLAYRDPFVLPTQASQKRAAMLCRKRFTAGAFSDHMALLRAFQAWQKARSDGWERAFCEKNFLSQATMEIIIGMRTQLLGQLRASGFVRARGGGDIRDVNTNSENWAVVKAALVAGMYPNLVHVDRENLVSTGPKEKKVRFHPASVLSQPQYKKIPPANGQAAAIKALPTDWLIYDEMTRAHRIANIRCCSAVTPVTILVFCGPARLASNALQEPSSFRVDGIPNDSSDSEMEDKTTANLAALKLDEWLHFTLEPEAASLLLQLRQKWHSLFLRRMRAPSKPWSQVDEATIRAIIAVLSTEEQSAGLQQPSGIGQRPRPMSSEELPLASSWRSNNSRKSSADTEFSDECTTAERVLMKSPSPALHPPRKYKDRGILHPKRGTEDRSDQSSLKSTDSSSYPSPCASPSPPSSGKGSKSPSPRPNMPVRYFIMKSSNLRNLEISQQKGIWSTTPSNERKLNRAFWESSIVYLVFSVQGSGHFQGFSRMSSEIGREKSQDWGSAGLGGVFKVEWIRKESLPFQFAHHLLNPWNDNKKVQISRDGQELEPQVGEQLLQLWERLPLGEKNTTD	soluble
MGSDKIHHHHHHMYQVIANFSFQNFEHDPVILINQIINQWRYNGQIIGREFSVTYHTQPSAHFQVRLATPEQISLMPEWNNDQVTEALSQAAEKGVEFESFEIIGRDYQAEQTSENSNARFYILYTTHLDSCSPLYNGDDFCPVPLYRLLQKDQSLAQALIKWQENWQACDQLQMNGTILEQPALNEISEIDSNLAQLGIKLCREVERVTQVPTYYYLYRLGTDEAVEYQRKCSSCGAEWRLTEPLHQIFHFKCDKCRLISNLSWQLQK	not soluble
METQLSVQLGLDSLLTDFGLESVMNKQQQLFANMGLSDIGAPTPSTAIPVPNAHLHPSMVAGSDPSNPVVGFGFGSPSSTTSSSPPLSNSPTIEQQQHAQLTAMMQGIMSNNNVAVSNGSGVQVASVPAVHCSGCKSNETATSFCQDCNANLCDNCTMAHKFMHCFADHRVVSLTTPGTGSSSSSTSSSSSASSTSSHQVPSLGGKQSPDSMMLGSGKRSVLCLQHRASELVFFCVSCNLAICRDCTVSDHPSGTHQYELIADVADKQMLKMEQLIADARSKHADMLDMFKQVDNKQQVLTASLHNAHAQLEETVSNLINVIQDQKKTLAKDIDNAFAAKQIQLTMVDKRIQSMADKLSQTIEFSRRLMSFASPAEVMVFKQLLDTRLQLFLGFNPDTSGVLMTPCEIEYLGAAGLFNNSASTVSQLLGSVHGGSPINNAPAANDFLMPQAGLAPIGRAQSRIIPIEQNQLARSPPHHIAGSLPMNAYSDSNLLRPNKDFGGSSQSLGPFNPLGASVPGAAADPFSSQYDKWSLGVEPSVGGLLEGGNVDEEKFQTLFPPSRSQIKRQKMIYHCKFGEFGVMEGQFTEPSGVAVNGQGDIVVADTNNHRIQVFDKEGRFKFQFGECGKRDGQLLYPNRVAVNRTTGDFVVTERSPTHQIQVYNQYGQFLRKFGANILQHPRGVCVDSKGRIIVVECKVMRVIIFDMFGNILQKFSCSRYLEFPNGVCTNDKNEILISDNRAHCIKVFSYEGQYLRQIGGEGVTNYPIGVGINSLGEVVVADNHNNFNLTVFSQDGTMIGALESRVKHAQCFDVALVDDGSVVLASKDYRLYLYRFLPATSGQSTSSASSQI	not soluble
MSMLCSLYRITPEQVTKLKDFPDAIGELVGFTAPPPKVSFLSKLFGKPPKQLSSSGQQFEPVAESDIFELNQAWHILHFLFSGTNAESPWPGGFLISGGEEIGPDQGYGPIRLFDSELSRAVAGFLDTQSFKMLDSAYVASEIEATEIYWKVSSEHTERQRQLEELWSMVKELQTFFEHTVRAGNATLLSIY	not soluble
MKIKAIEPTPSPNTMKVILNEVLPSGARNNYTNENKEQAPMQVQEILKIEGIKGVYHVADFLAVERNAKYDWKVLLQQVRAVFGEEVLEESEEQQLAHFGEVKVFVQMFFTIPMQVKLTDGTTEERVGLPDRFKESIMKVQMSAPNVVKERKWVEQSTRYGNFEEIGKEVVEEIVAAYSEERVNETVKELLNQAGAVEVTIQKREPYKVTEEMMKDSDWKNRFAALEQMDPTEEDIPVLKMALDDEKVSIRRLATAYLGMVKGDEVLPLLYKALLDRSVSVRRTAGDCLSDVGDPAAMFVMIKSLKDPSKLVRWRAAMFLFELGDESAIPALKAAQDDPEFEVAMQARLALERIEGGEEAKGSVWKQMTESRKGE	not soluble
MGSDKIHHHHHHMTKNSETGHISEGGGILTRPDDATIAYRRLEGKTPGVVFLHGFHSDMEGSKALALEAMCQAQGRAFLRFDYFGHGKSSGDVALGTIGRWAADAVAVIGELTKGPQILVGSSLGGWIALLAALEMKDKVAGLVGVAAAPDFTEDLMWQDFTFEQRRTLMETGELELPNCHEPDNPWRIHRSLIEDGRNHLLLRDLIQIHCPVWLIQGQKDEDVPWQTALRLADCLASEQVEIVLVKDGDHRLSRDGDLIRLTNMVAAMLGMIQEL	not soluble
MNQNDNRIFRKEDLDWKELETIGIHKEELEKSGDMELLLQGEETETVPLKIRTSALRLTMDATLRITVGTDGKPVMEINGISPEAESEAGG	not soluble
MSLTQETALGAALKSAVQTMSKKKQTEMIADHIYGKYDVFKRFKPLALGIDQDLIAALPQYDAALIARVLANHCRRPRYLKALARGGKRFDLNNRFKGEVTPEEQAIAQNHPFVQQALQQQSAQAAAETLSVEAEAAESSAAEEGGSHHHHHH	soluble
MGSDKIHHHHHHMKVSADIGALVERRKQGYSLEAPFYQSEEIFALDMEAIFRKHWIQVAVEPDVPEPGDYITVELGHDSILVVRDDDMQVRAFHNVCRHRGARLCNEDKGTVGNIVCPYHSWTYNLTGDLMFAEHMGEKFDRCKHSLKSVHVQNLAGLIFVCLADEPPADFAAMRAAMEPYLLPHDLPNTKIAAQVDIIEEGNWKLTMENNRECYHCVANHPELTISLYEYGFGYQQSPANAEGMEAFEKTCIARAAQWEALNLPSAEIERLLERTGFRTQRLPLDRSGESQTLDAKVASKKLLGKFEQADLGGLSFWTQPNSWHHFMSDHIVTFSVIPLSAGKTLVRTKWLVHKDAQEGVDYDVANLTAVWNATNDQDRVLVEYSQRGSASSAYEPGPYSPFTEGLVEKFSAWYIRRLAEHVGA	not soluble
MGSDKIHHHHHHADLQSNFLKMLVTQMNNQDPLNPMDNAQLTSQLAQISTVSSMQTMNSTLTQLLNQTSASRAMDSAALIGRTVMVPGSQFSVKDGVAGQFGVDLPSTADAVTVNVLDAHGNVVRTIDMKGQTAGVHDIAWDGKNDAGVAVADGDYSFKVSATANGTSVQPVALVYGKVNSISGDSSGVLVDVGNGQQANVDDVRRIL	not soluble
MESLQNHFLIAMPSLDDTFFERTVIYLCEHDEKGAMGLVINKPLGIEVNSLLEQMDLPTEQVSADLAMGSQVLMGGPVSQDRGFVLHTSQPYWANSTELGSGLMLTTSRDVLTAIGSKRSPDKFLVALGYAGWSKNQLEQELADNSWLTIPADHALLFDINHEDRWQQASRSLGFEAWQLSTQAGHALEHHHHHH	soluble
MNKPTLGIDLDTTLNTLDREWVKRYNEIYKDKLLPSDIKGWDIENYVKPECGKKIYDILKEPHFFRNLGVQPFAETALEELTSIFNIYIVSATHYKVCEDKGNWIKEKFPFISYQNIIFCHNKGLVHLDILIDDNPLNLENFKGNKILFDAHHNKSENRFVRARDWYEAKALCESLKDFL	not soluble
MEKKKVTIPQVCHGHSRPVVDLFYSPITPDGFFLISASKDSHPMLRNGETGDWIGTFEGHKGAVWSSCLDNNALRAASASADFSAKLWDALTGDVLHSFEHKHIVRACAFSEDTKSLLTGGFEKILRVFDMNRLDAPPTEVDKSPGSIRTLTWLHSDQTILSSCTDIGGVRLWDVRSGKIVQTLETKSPVTSAEVSQDGRYITTADGSTVKFWDANHFGLVKSYDMPCNIESASLEPKSGEKFVAGGEDMWVRVFDFYTGEEIGCNKGHHGPVHCVRFTPTGLSYASGSEDGTIRIWQTTPANPEENETSSRRVKHSVDEVSKKIEGFHINKEGKTAEKPSDT	soluble
MSLILFFYFMVLSEACMRTVAPEDVYISSTFPFEDFTTEAVVTTDSSTISQLTTETTMETVETHIFYVTCKNRYPISNRNCLINRHTDDFFCFILPVDACMRTVPPEDVYISITLPYEDFTTESNEIAVTTDSSTVPQLVTETTEIPTATTTPGWSSKTELHWKISKILNTK	not soluble
MAAKPVLYYFNGRGKMESIRWLLAAAGVEFEEVFLETREQYEKLLQSGILMFQQVPMVEIDGMKLVQTRAILNYIAGKYNLYGKDLKERALIDMYVGGTDDLMGFLLSFPFLSAEDKVKQCAFVVEKATSRYFPAYEKVLKDHGQDFLVGNRLSWADIHLLEAILMVEEKKSDALSGFPLLQAFKKRISSIPTIKKFLAPGSKRKPISDDKYVETVRRVLRMYYDVKPH	soluble
MGSDKIHHHHHHMLRGMYTASGAMQALQRQQEMLSNNLANARTPGFRADQASLRTFPEMMIQQSGVNEQSGVRSRGTVGKLATGVFMQAATPNFALGSITETGNATDLQISSLEGAALFTIRHADPATGEEETLYTTNGQFAVGQDGLLRTTENDLVLGDAGQPLNVVNEDFTVSADGAVTDGNGQAIGNLGLVVTNQPETLERTGNGLFRSPDALNGGAIKVDQGVLELGNVEVEQTMTEMNAGLRQFEANQKVIQAYDRTAEKAVSEIGRVR	not soluble
